Reference: patent publication EP0842426B1

Tests used:
Assay in all cases: cell-based or functional assay
[1] = biological target: amphotropic receptor on human B and T cell lines (K422 and Jurkat) (human) (UniProt Q08357)
[2] = biological target: human epidermal growth factor receptor (human) (UniProt P00533)
[3] = biological target: EGF receptor on NIH3T3 cells and NIH3T3 clones transfected with EGF receptor expression constructs
[4] = biological target: ecotropic MLV receptor (mouse) (UniProt Q09143)
[5] = biological target: amphotropic MLV receptor on NIH3T3 mouse fibroblasts (mouse) (UniProt Q80UP8)
Chain of amphotropic MLV receptor on NIH3T3 mouse fibroblasts (mouse) (Q80UP8 whole entry): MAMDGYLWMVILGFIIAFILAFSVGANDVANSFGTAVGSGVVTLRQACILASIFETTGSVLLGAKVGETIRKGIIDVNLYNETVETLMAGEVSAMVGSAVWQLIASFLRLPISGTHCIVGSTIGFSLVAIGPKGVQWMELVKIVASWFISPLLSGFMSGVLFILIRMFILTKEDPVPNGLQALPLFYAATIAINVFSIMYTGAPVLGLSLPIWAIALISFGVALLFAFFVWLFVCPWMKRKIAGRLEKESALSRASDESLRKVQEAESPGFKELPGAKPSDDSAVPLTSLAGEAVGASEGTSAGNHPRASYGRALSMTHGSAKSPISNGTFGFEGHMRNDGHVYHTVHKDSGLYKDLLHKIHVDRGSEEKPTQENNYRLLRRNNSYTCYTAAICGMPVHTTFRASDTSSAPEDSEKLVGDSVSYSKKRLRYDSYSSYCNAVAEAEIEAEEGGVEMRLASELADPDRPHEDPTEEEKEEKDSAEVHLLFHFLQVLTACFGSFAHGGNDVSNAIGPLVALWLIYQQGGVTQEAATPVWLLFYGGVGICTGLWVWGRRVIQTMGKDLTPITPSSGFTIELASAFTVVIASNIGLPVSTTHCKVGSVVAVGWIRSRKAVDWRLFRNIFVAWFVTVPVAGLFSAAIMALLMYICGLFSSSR

Chain of ecotropic MLV receptor (mouse) (Q09143 whole entry): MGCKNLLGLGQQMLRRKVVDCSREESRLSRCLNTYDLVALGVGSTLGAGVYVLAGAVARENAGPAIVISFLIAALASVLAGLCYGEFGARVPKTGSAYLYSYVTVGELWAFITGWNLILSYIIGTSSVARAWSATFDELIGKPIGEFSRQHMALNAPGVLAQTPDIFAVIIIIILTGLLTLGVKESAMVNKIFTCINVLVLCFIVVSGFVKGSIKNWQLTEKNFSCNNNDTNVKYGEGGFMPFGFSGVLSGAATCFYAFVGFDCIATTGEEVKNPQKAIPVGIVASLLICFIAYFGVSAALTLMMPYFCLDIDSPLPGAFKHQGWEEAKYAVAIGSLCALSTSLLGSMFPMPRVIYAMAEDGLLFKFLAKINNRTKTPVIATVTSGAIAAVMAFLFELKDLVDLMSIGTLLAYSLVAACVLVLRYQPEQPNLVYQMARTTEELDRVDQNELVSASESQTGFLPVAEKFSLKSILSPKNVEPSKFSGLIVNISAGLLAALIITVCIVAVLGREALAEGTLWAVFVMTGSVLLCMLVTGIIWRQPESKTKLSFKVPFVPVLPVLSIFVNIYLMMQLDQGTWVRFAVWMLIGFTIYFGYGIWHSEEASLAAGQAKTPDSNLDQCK
Chain of Moloney MLV ecotropic envelope glycoprotein (control envelope MO) (P03385 34-665 limits assumed): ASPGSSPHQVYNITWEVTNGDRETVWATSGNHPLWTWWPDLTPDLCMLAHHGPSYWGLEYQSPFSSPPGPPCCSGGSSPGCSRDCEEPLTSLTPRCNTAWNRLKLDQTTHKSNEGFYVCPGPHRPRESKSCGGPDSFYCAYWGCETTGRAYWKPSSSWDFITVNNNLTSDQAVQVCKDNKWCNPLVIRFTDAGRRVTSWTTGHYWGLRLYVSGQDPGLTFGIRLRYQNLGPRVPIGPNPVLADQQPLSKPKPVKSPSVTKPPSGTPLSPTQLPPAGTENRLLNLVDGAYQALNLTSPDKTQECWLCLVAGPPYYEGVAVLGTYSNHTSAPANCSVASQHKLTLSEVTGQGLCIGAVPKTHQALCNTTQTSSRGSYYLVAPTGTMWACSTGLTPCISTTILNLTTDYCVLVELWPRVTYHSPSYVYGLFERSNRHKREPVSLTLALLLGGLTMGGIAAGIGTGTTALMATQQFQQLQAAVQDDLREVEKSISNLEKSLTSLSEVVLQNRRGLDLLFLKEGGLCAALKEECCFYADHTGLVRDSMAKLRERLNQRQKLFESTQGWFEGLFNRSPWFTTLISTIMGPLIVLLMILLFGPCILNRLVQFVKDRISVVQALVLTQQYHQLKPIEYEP
Chain of amphotropic receptor on human B and T cell lines (K422 and Jurkat) (human) (Q08357 whole entry): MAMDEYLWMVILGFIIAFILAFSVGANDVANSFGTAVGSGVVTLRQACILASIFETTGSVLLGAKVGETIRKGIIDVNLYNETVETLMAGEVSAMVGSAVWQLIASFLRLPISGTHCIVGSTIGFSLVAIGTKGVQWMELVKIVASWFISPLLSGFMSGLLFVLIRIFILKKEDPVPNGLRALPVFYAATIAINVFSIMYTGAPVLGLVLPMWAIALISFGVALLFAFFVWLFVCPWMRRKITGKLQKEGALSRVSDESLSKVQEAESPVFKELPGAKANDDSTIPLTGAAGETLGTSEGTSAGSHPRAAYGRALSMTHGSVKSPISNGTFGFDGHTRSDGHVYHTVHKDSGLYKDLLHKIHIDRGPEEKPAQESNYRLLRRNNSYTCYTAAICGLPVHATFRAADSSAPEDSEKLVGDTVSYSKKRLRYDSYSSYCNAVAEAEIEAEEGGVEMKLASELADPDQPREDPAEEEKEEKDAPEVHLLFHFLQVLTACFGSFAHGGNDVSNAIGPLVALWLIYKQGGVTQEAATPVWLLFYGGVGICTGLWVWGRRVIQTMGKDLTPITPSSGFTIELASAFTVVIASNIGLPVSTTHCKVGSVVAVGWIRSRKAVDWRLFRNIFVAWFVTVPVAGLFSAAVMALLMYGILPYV

Substance: chimaeric EGF-4070A (EA) envelope glycoprotein (human EGF fused to the amphotropic 4070A MLV envelope at position +5) (from UniProt P03385 34-39; P01133 23-1207)
- titre on Jurkat cells (devoid of EGF.R), lacZ-EFU/ml [1]: 1000 lacZ-EFU/ml
- titre on K422 cells (devoid of EGF.R), lacZ-EFU/ml [1]: 10000 lacZ-EFU/ml
- inhibition of viral infection by EGF receptor expression on NR6 cells [2]: 100 fold
- titre on NR6-wt hEGF.R cells, + rEGF (pre-incubated with recombinant EGF), lacZ-EFU/ml [2]: 500000 lacZ-EFU/ml
- titre on NR6-wt hEGF.R cells, - rEGF, lacZ-EFU/ml [2]: 3000 lacZ-EFU/ml
- titre reduction on EGF receptor-positive human cells compared to control viruses with unmodified 4070A envelopes [2]: < 1e+07 fold

Substance: chimaeric EMO envelope glycoprotein (human EGF inserted in the Moloney MLV envelope SU glycoprotein at amino acid +6) (from UniProt P03385 34-39; P01133 23-1207; P03385 40-469)
- reduction of virus titre by EGF.R expression on mouse fibroblasts [3]: < 1000 fold
- titre on NIH3T3 cells with EGFR No. 10,000, lacZ-EFU/ml [3]: 100000 lacZ-EFU/ml
- titre on NIH3T3 cells with EGFR No. 80,000, lacZ-EFU/ml [3]: 10000 lacZ-EFU/ml
- titre on NIH3T3 cells with EGFR No. 400,000, lacZ-EFU/ml [3]: 1000 lacZ-EFU/ml
- titre on 3T3 (NIH3T3), lacZ-EFU/ml [4]: 100000 lacZ-EFU/ml
- titre on 3T3/A (GP+EAM12, expressing amphotropic envelope), lacZ-EFU/ml [4]: 100000 lacZ-EFU/ml
- titre on 3T3/E (psi2, expressing MoMLV envelope), lacZ-EFU/ml [4]: < 1 lacZ-EFU/ml
- titre on A431 cells with chloroquine, lacZ EFU/ml [2]: 225 lacZ EFU/ml
- titre on NR6-wt hEGF.R cells, + rEGF (pre-incubated with recombinant EGF), lacZ-EFU/ml [2]: 100000 lacZ-EFU/ml
- titre on NR6-wt hEGF.R cells, - rEGF, lacZ-EFU/ml [2]: 1000 lacZ-EFU/ml
- titre on TE671 cells with chloroquine, lacZ EFU/ml [2]: 46 lacZ EFU/ml

Substance: amphotropic 4070A MLV envelope glycoprotein (control envelope A)
- titre on 3T3 (NIH3T3), lacZ-EFU/ml (row shifted by one column) [5]: 1e+07 lacZ-EFU/ml
- titre on 3T3/A (GP+EAM12, expressing amphotropic envelope), lacZ-EFU/ml (row shifted by one column) [5]: 100 lacZ-EFU/ml
- titre on 3T3/E (psi2, expressing MoMLV envelope), lacZ-EFU/ml (row shifted by one column) [5]: 1e+07 lacZ-EFU/ml

Substance: Moloney MLV ecotropic envelope glycoprotein (control envelope MO) (from UniProt P03385 34-665)
- titre on 3T3 (NIH3T3), lacZ-EFU/ml [4]: 1e+07 lacZ-EFU/ml
- titre on 3T3/A (GP+EAM12, expressing amphotropic envelope), lacZ-EFU/ml [4]: 1e+07 lacZ-EFU/ml
- titre on 3T3/E (psi2, expressing MoMLV envelope), lacZ-EFU/ml [4]: < 1 lacZ-EFU/ml
- titre on EJ.A1 cells, lacZ-EFU/ml [4]: 1e+06 lacZ-EFU/ml
